Experiments:
[1] = molecular target: lectin-purified insulin receptor (isoform B) (UniProt P06213); experiment: receptor-binding assay with lectin-purified insulin receptor
[2] = size-exclusion chromatography, zinc- and phenol-free (self-association control)

Row | affinity relative to human insulin [1] [%] | Substance | molecular weight by SEC [2]
1 | 50 | Trp^B26, Orn^B29 insulin analogue (ligand) | 
2 |  | Lys^B28, Pro^B29 (Lispro) insulin | The molecular weight (MW; or molecular mass) of the species was 3.1 kDa

Source: patent US20200055914A1
